Measured values as given in paper PMC3939855.

Columns and labels:
[1] = molecular target: T1, IRF3 (endogenous, 293T cells) (human (endogenous in 293T)), Q14653; assay: native gel or EMSA; conditions: remark: other sources report otherwise
T1 chain: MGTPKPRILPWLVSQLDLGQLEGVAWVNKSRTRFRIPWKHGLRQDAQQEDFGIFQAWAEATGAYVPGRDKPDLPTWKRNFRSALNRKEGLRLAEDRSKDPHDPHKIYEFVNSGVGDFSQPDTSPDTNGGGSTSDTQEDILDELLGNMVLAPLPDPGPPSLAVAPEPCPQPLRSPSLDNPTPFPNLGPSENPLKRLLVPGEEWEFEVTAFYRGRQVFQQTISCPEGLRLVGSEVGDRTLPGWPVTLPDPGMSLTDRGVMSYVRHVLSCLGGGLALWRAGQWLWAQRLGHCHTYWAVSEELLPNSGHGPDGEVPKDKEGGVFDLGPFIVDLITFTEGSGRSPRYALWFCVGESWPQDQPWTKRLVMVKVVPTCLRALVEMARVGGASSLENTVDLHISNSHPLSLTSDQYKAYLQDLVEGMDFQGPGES

[2] = molecular target: T2, IRF3 (endogenous, MEFs) (mouse (endogenous in MEFs)), P70671; assay: native gel or EMSA; conditions: remark: other sources report otherwise
T2 chain: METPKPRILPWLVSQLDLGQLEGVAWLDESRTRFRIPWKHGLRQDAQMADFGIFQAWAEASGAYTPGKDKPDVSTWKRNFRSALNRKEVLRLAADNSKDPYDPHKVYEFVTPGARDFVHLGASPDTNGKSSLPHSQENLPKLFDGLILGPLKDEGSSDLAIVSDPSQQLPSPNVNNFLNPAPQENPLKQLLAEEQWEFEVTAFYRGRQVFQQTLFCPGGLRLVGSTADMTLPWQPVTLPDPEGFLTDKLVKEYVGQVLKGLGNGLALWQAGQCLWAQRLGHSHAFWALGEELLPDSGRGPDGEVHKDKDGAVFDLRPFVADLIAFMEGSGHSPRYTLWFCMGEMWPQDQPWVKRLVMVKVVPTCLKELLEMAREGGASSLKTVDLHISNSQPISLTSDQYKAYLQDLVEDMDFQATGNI

Row | Binder | stoichiometry N [1] | stoichiometry N [2]
1 | IRF3 (endogenous, 293T cells), Q14653 1-427 (natural protein) MGTPKPRILPWLVSQLDLGQLEGVAWVNKSRTRFRIPWKHGLRQDAQQEDFGIFQAWAEATGAYVPGRDKPDLPTWKRNFRSALNRKEGLRLAEDRSKDPHDPHKIYEFVNSGVGDFSQPDTSPDTNGGGSTSDTQEDILDELLGNMVLAPLPDPGPPSLAVAPEPCPQPLRSPSLDNPTPFPNLGPSENPLKRLLVPGEEWEFEVTAFYRGRQVFQQTISCPEGLRLVGSEVGDRTLPGWPVTLPDPGMSLTDRGVMSYVRHVLSCLGGGLALWRAGQWLWAQRLGHCHTYWAVSEELLPNSGHGPDGEVPKDKEGGVFDLGPFIVDLITFTEGSGRSPRYALWFCVGESWPQDQPWTKRLVMVKVVPTCLRALVEMARVGGASSLENTVDLHISNSHPLSLTSDQYKAYLQDLVEGMDFQGPGES | 2 | 
2 | IRF3 (endogenous, MEFs), P70671 1-419 (natural protein) METPKPRILPWLVSQLDLGQLEGVAWLDESRTRFRIPWKHGLRQDAQMADFGIFQAWAEASGAYTPGKDKPDVSTWKRNFRSALNRKEVLRLAADNSKDPYDPHKVYEFVTPGARDFVHLGASPDTNGKSSLPHSQENLPKLFDGLILGPLKDEGSSDLAIVSDPSQQLPSPNVNNFLNPAPQENPLKQLLAEEQWEFEVTAFYRGRQVFQQTLFCPGGLRLVGSTADMTLPWQPVTLPDPEGFLTDKLVKEYVGQVLKGLGNGLALWQAGQCLWAQRLGHSHAFWALGEELLPDSGRGPDGEVHKDKDGAVFDLRPFVADLIAFMEGSGHSPRYTLWFCMGEMWPQDQPWVKRLVMVKVVPTCLKELLEMAREGGASSLKTVDLHISNSQPISLTSDQYKAYLQDLVEDMDFQATGNI |  | 2
